Earlier results on one substance are cited in publication PMC3924328, “Structure of the S100A4/myosin-IIA complex” (BMC Structural Biology, 2013).

The target in this data set is myosin-IIA 1904-1927 (Homo sapiens) (UniProt P35579). Kind of data set: fluorescence anisotropy. Background: Polarisation of emitted light reports the rotation of a fluorescent probe.
myosin-IIA 1904-1927 (Homo sapiens), sequence (P35579 1904-1927): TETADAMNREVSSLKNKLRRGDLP

S100A4, sequence (P26447 2-101): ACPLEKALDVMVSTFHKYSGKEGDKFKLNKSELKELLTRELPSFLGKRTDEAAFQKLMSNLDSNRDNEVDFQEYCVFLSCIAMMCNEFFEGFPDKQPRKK

Usually Kd stands for the equilibrium constant for the complex coming apart. Regarding S100A4 (from UniProt P26447), the Kd was 260 nM.
